From US20230131338A1 (Regeneron, published 2023)

Legend:
[1] = target: T1, cynomolgus monkey FXI (in pooled cynomolgus monkey plasma) (cynomolgus monkey, UniProt A0A2K5VVW4 19-624); assay: cell-based or functional assay
[2] = target: T1, cynomolgus monkey FXI (in pooled …); assay: cell-based or functional assay; remark: listed apart in the source
[3] = target: recombinant mouse FXI with C-terminal myc-myc-hexahistidine tag (mFXI.mmH) (mouse, UniProt Q91Y47 19-624, limits assumed); assay: SPR, REGN9933 surface-captured, 25°C, pH 7.4
[4] = target: recombinant rabbit FXI with C-terminal myc-myc-hexahistidine tag (rbFXI.mmH) (rabbit, UniProt G1SSQ6 19-623); assay: SPR, REGN9933 surface-captured, mmH-tagged protein injected, 25°C, pH 7.4, 1:1 steady-state model

- Fold Increase in Clotting Time (aPTT w/EA), maximum change, monkey plasma [1]: 2.1 fold
- TGA % ETP (induced w/EA), relative to baseline, monkey plasma [1]: 66%
- TGA % Peak Thrombin (induced w/EA), relative to baseline, monkey plasma [1]: 43%
- TGA Fold Increase in Lag Time (induced w/EA), maximum change, monkey plasma [1]: 2.2 fold
- concentration at which aPTT doubles relative to baseline, pooled cynomolgus monkey plasma [2]: 1.1 µM
- binding result [3]: no binding (tested: 50 nM)
- Kd [4]: 171 nM
B1: REGN9933 (antibody, human IgG4 S228P, kappa, V domains shown)
VH: EVQLVESGGGLVQPGGSLRLSCAASGFTFSNYAMNWVRQAPGKGLDWVSFIRSGGDTTYYADSVKGRFTISRDNSKNTLYLQMNSLRAEDTAVYYCAKVHPYTWDYGDAFDIWGQGTMVTVSS
VL: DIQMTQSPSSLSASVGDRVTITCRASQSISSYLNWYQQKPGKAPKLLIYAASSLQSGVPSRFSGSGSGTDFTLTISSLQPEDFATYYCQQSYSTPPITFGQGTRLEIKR
notes: Fully human; hinge-stabilized IgG4 (IgG4P) Fc; also called H4H29790P2; subject anti-FXI mAb
